This is an account of results in publication PMC11570697, “2D4, a humanized monoclonal antibody targeting CD132, is a promising treatment for systemic lupus erythematosus” (Signal Transduction and Targeted Therapy, 2024).

Assay [1] addresses human CD132 (common gamma chain cytokine receptor) (human) (UniProt P31785).
The target of assay [2] is human CD132 (common gamma chain cytokine receptor) (human, UniProt P31785). Briefly: cell-based or functional assay.
human CD132 (common gamma chain cytokine receptor), sequence (P31785 23-262): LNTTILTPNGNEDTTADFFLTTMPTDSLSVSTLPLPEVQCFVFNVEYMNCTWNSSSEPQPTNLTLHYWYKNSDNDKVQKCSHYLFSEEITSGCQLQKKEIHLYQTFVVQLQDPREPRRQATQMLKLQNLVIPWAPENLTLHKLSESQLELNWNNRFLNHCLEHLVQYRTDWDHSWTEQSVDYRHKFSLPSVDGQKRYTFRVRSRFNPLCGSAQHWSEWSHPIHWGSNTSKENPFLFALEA

human CD132 (common gamma chain cytokine receptor) (human), sequence (P31785 23-262): as above

Molecule “REGN7257, pan CD132 blocking monoclonal antibody” gave a maximum percent inhibition of IL-2-induced STAT5 phosphorylation in CD3+ T cells of human PBMCs (gradient dilutions, up to 200 nM antibody) in assay [1] of 100%.

B1: 2D4, humanized anti-CD132 monoclonal antibody (antibody, V domains shown)
VH: QVQLVQSGAEVKKPGSSVKVSCKTSGFNIEDIYLHWVRQAPGQGLEWMGRIDPANGKSNYDPKFQGRVTITADTSTSTAYMELSSLRSEDTAVYYCAALRFFGLDYWGQGTLVTVSS
VL: EIVLTQSPATLSLSPGERATLSCRATSSVSYMYWYQQKPGQAPELLIYRTSNLASGIPARFSGSGSGTDYTLTISSLEPEDFAVYYCQQWSSNPPTFGQGTKLEIK
Take B1: in assay [2], the “IC50 of blocking human IL-21: IFN-γ secretion by NK92 cells (ELISA), relative to REGN7257” value amounted to 10 fold and the “IC50 of blocking human IL-21: STAT3 phosphorylation in CD3+ T cells of human PBMCs (flow cytometry), relative to REGN7257” value is under 2 fold.
